According to article PMC6833008 (Molecules, 2019):
Where “and” joins values, the source holds several entries; their conditions need not be identical. Identical values can stand only once. Like-named read-outs stand apart in the source and are kept apart here. Values belong to the molecule of their own block, whether it stands above or below them. Ends that are not written are not given here.

Key:
[1] = molecular target: T1, Recombinant human PD-1 protein (Homo sapiens, UniProt Q15116); assay: SPR binding of peptides or PD-L1 to immobilized PD-1 (Biacore X100)
T1 construct: purchased Abcam (Cambridge, UK)
Method: Peptides of lyophilized powder were dissolved in sterile milli-Q H2O to a stock concentration of 1 mM for use in surface plasmon resonance (SPR) analysis. […] All synthetic peptides and proteins were equally packaged to avoid repeated freeze–thaw cycles.
The HBS-EP buffer (10×) was diluted 10-fold with sterile deionized water, filtered through a 0.22-μm membrane filter, and degassed immediately before the experiment as running buffer with a flow rate of 30 μL/min for the instrument system. The purified active PD-1 was diluted by 10 mM sodium acetate solution at pH 4.5, resulting in a protein concentration of 50 μg/mL. Coupling conditions were determined by protein isoelectric points and previous reports. The diluted protein was immobilized on the surface of a CM5 sensor chip via the primary amine group, employing a standard Amine Coupling Kit, and the target immobilization level was 5000 response units (RUs). The flow cell 1 […] any modification was used as a reference to correct the system error. The RU values were collected, and all the binding affinity data was calculated by kinetic models (1:1 interaction) within Biacore X100 Evaluation Software.
Each concentration was injected into the channel for 120 and 150 s for dissociation. Then, 10 mM glycine 3.0 or glycine 2.5 was utilized to regenerate the sensor chip surface. The equilibrium dissociation constant (KD) was calculated to evaluate the ability of peptides to interact with PD-1.

[2] = molecular target: T2, Recombinant human PD-1 protein (programmed cell death protein 1) (human, UniProt Q15116 25-170); assay: SPR; Biacore X100, 25 °C; PD-1 amine-coupled to a CM5 chip (target 5000 RU); peptide as analyte in HBS-EP buffer pH 7.4 (2-64 μM WANG-003, 1-16 μM WANG-004, 1.5625-100 μM WANG-005), 30 μL/min, 120 s injection, 150 s dissociation; regeneration 10 mM glycine 3.0 or 2.5; 1:1 kinetic model; three single runs; details: both partners purified
T2 construct: programmed cell death protein 1 (PD-1), human, recombinant, bought from Abcam; the results speak of the immobilised ectodomain; also called hPD-1; CD279; source: bought: Abcam
T2 sequence (Q15116 25-170): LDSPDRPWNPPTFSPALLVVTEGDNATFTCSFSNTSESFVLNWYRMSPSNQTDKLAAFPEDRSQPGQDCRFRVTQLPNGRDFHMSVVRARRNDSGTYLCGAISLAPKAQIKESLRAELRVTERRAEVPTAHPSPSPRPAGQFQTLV

[3] = molecular target: T3, Recombinant human PD-1 protein (programmed cell death protein 1) (human, UniProt Q15116 25-170); assay: SPR; Biacore X100, 25 °C; PD-1 immobilised on a CM5 chip by amine coupling (target 5000 RU); peptides as analytes in HBS-EP (2–64 μM WANG-003, 1–16 μM WANG-004, 1.5625–100 μM WANG-005, 62.5–1000 μM WANG006, 3.125–100 μM WANG007), 120 s injection and 150 s dissociation; 30 μL/min; 1:1 kinetic model; details: both partners purified
T3 construct: Programmed cell death protein 1 (PD-1), human, recombinant, bought from Abcam; the results call the immobilised protein an ectodomain; No catalogue number, limits or tags are printed; The UniProt ID Q15116 is printed for the docking model, not for the bought protein; also called CD279; purified active PD-1; source: bought: Abcam
T3 sequence (Q15116 25-170): as above

T1 sequence (Q15116 25-170 limits assumed): as the sequence (Q15116 25-170) above

- binding affinity to PD-1 (in words) [1]: moderate affinity
Molecule: KRWWR-NH2 (C-terminus assumed) [WANG-003, KRWWR-NH2]

- binding affinity to PD-1 (in words) [1]: did not show binding affinities
Molecule: YVAM-NH2 [WANG-006]

- binding affinity to PD-1 (in words) [1]: moderate affinity
- binding affinity to PD-1 (in words) ([1]; listed as FRWWR-NH2): moderate binding affinity
Molecule: FRWWR-NH2 (C-terminus assumed) [WANG-004, FRWWR-NH2]

- binding affinity to PD-1 (in words) [1]: did not show binding affinities
Molecule: YVAE-NH2 [WANG-007]

- binding affinity to PD-1 (in words) [1]: moderate affinity
Molecule: RRWQWR-NH2 [WANG-005, RRWQWR-NH2]

B1: WANG-003 (KRWWR-NH2) (peptide)
peptide: KRWWR-NH2
notes: in-house synthetic peptide; source: synthetic peptide
- Kd [2]: 2100 nM and 4610 nM and 3350 nM
- koff [2]: 0.00258 s⁻¹ and 0.00446 s⁻¹ and 0.00365 s⁻¹
- kon [2]: 1230 M⁻¹ s⁻¹ and 967 M⁻¹ s⁻¹ and 1090 M⁻¹ s⁻¹

B2: WANG-004 (FRWWR-NH2) (peptide)
peptide: FRWWR-NH2
notes: as for B1
- Kd [2]: 1380 nM and 2070 nM and 1450 nM
- koff [2]: 0.00383 s⁻¹ and 0.00438 s⁻¹ and 0.00401 s⁻¹
- kon [2]: 2770 M⁻¹ s⁻¹ and 2120 M⁻¹ s⁻¹ and 2760 M⁻¹ s⁻¹

Molecule: RRWQWR-NH2 [WANG-005 (RRWQWR-NH2)]
- kon [2]: 658 M⁻¹ s⁻¹ and 436 M⁻¹ s⁻¹ and 494 M⁻¹ s⁻¹

B3: WANG-003 (peptide)
peptide: KRWWR-NH2
notes: in-house synthetic peptide; also called KRWWR-NH2; KRWWR; source: synthetic peptide (solid phase, HPLC purified)
- Kd [3]: 3350 ± 1030 nM

B4: WANG-004 (peptide)
peptide: FRWWR-NH2
notes: in-house synthetic peptide; also called FRWWR-NH2; FRWWR; source: synthetic peptide (solid phase, HPLC purified)
- Kd [3]: 1630 ± 309 nM
